Data reported in US20240262922A1 (Merck KGaA, published 2024).
Numbering of substitutions follows the chain as printed. Where two headings read alike, the source gives them in different places. One block for each binder: values may come before it.

Key:
[1] = biological target: T1, recombinant cynomolgus monkey OX40L (Novoprotein cat. #CP72) (cynomolgus monkey, UniProt P23510 51-183 (human entry), limits assumed); assay: flow cytometry on CHO-S-OX40L cells / ELISA on recombinant OX40L (sentence does not say which)
T1 construct: Bought protein; also called cynomolgus OX40L
T1 chain: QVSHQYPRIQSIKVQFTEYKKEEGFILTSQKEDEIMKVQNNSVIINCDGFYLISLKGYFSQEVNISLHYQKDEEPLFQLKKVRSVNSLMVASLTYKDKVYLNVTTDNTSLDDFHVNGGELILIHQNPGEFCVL

[2] = biological target: T2, recombinant human OX40L protein (R&D Systems, cat. #1054-OX) (human, UniProt P23510 51-183); assay: SPR steady state, Biacore T200; OX40L immobilised on CM5, antibody in solution
T2 construct: Bought soluble recombinant protein; also called rhOX40L; recombinant soluble OX40L
T2 sequence: T1 chain with Q5R, E23K
Protocol: (§1) Recombinant OX40L proteins (human OX40L protein, R&D systems, cat. #1054-OX; cynomolgus monkey OX40L, Novoprotein cat. #CP72) were immobilized onto Biacore CM5 sensor chips and anti-OX40L antibodies were bound to this surface at a range of concentrations. The response at steady state was measured with a Biacore T200 instrument (GE Healthcare) and plotted against the concentration of antibody and fit to a 1:1 binding model. The steady state KD was determined as the antibody concentration at a response equal to half the maximal response (Rₘₐₓ).
Steady state affinity assay was performed as described in section 1.1.7 of Example 1.

mouse OX40L = biological target: T3, mouse OX40L (mouse, UniProt P43488 51-198, limits assumed); assay: flow cytometry on CHO-S cells / ELISA on recombinant protein (sentence does not say which)
T3 sequence: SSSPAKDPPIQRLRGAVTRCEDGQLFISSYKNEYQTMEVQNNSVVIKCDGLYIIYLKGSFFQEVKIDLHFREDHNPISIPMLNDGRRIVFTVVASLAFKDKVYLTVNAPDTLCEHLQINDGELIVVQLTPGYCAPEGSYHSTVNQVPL

AVI-GST-His6-hOX40L [3] = biological target: T4, AVI-GST-His6-hOX40L (human, UniProt P23510 51-183); assay: cell-based or functional assay
T4 sequence: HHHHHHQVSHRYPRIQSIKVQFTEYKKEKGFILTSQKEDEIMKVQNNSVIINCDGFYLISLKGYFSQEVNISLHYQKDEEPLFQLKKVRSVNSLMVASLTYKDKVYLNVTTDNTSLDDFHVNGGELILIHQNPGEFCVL

[4] = biological target: T2, recombinant human OX40L protein (R&D …); assay: cell-based or functional assay
AVI-GST-His6-hOX40L [5] = biological target: T4, AVI-GST-His6-hOX40L; assay: cell-based or functional assay; remark: listed apart in the source
[6] = biological target: T2, recombinant human OX40L protein (R&D …); assay: cell-based or functional assay; remark: listed apart in the source
[7] = biological target: T2, recombinant human OX40L protein (R&D …); assay: SPR steady state, Biacore T200; OX40L immobilised on CM5, FcFab in solution
Protocol: as §1
As with the IgG clones, binding affinity to human OX40L was determined for all twelve FcFabs using steady state affinity assay as described in section 1.1.7 of Example 1. […]

B1: 89B09 (IgG) (antibody)
heavy: not shown
light: SSELTQDPAVSVALGQTVRITCQGDSVRRFFAHWYQQKPGQAPILVISGKDTRPSGIPDRFSGSISGNTASLTITGAQAEDEADYYCNSRDSSGYLVLFGGGTKLTVLGQPKAAPSVTLFPPSSEELQANKATLVCLISDFYPGAVTVAWKADSSPVKAGVETTTPSKQSNNKYAASSYLSLTPEQWKSHKSYSCQVTHEGSTVEKTVAPTECS
- binding result [1]: binds
- Kd [2]: 31.6 nM
- binding result (mouse OX40L): no binding
- OX40L neutralization/OX40-HEK Reporter IC50 (AVI-GST-His6-hOX40L [3]): 4.4 nM
- Primary T cell activation assay IC50 [4]: 10.7 nM

B3: 85F12 (FcFab) (antibody)
chain 1: EPKSSDKTHTCPPCPAPPVAGPSVFLFPPKPKDTLMISRTPEVTCVVVDVSHEDPEVKFNWYVDGVEVHNAKTKPREEQYNSTYRVVSVLTVLHQDWLNGKEYKCAVSNKALPSSIEKTISKAKGQPREPQVYTLPPSREEMTKNQVSLTCLVKGFYPSDIAVEWESNGQPENNYKTTPPVLDSDGSFFLYSKLTVDKSRWQQGNVFSCSVMHEALHNHYTQKSLSLSPGAGGGGSGGGGSGGGGSQVQLQQSGPGLVKPSQTLSLTCAISGDSVSSNSAVWNWIRQSPSRGLEWLGRTDYRSKWNNDYAVSVKSRITINPDTSKNQFSLQLNSVTPEDTAVYYCARGDAGMASFDYWGQGTLVTVSSASTKGPSVFPLAPSSKSTSGGTAALGCLVKDYFPEPVTVSWNSGALTSGVHTFPAVLQSSGLYSLSSVVTVPSSSLGTQTYICNVNHKPSNTKVDKRVEPKSC
chain 2: SSELTQPPSVSVSPGQTASITCSGDKLGDKYACWYQQKAGQSPVVVIYQDRKRPSGIPERFSGSNSGNTATLTISGTQAMDEADYYCQTWDRRTAVFGGGTKLTVLGQPKAAPSVTLFPPSSEELQANKATLVCLISDFYPGAVTVAWKADSSPVKAGVETTTPSKQSNNKYAASSYLSLTPEQWKSHKSYSCQVTHEGSTVEKTVAPTECS
- OX40L neutralization/OX40-HEK Reporter IC50 (AVI-GST-His6-hOX40L [5]): > 161 nM
- Primary T cell activation assay IC50 [6]: > 161 nM
- Kd [7]: 34.1 nM

B6: 30F02 (FcFab) (antibody)
chain 1: EPKSSDKTHTCPPCPAPPVAGPSVFLFPPKPKDTLMISRTPEVTCVVVDVSHEDPEVKFNWYVDGVEVHNAKTKPREEQYNSTYRVVSVLTVLHQDWLNGKEYKCAVSNKALPSSIEKTISKAKGQPREPQVYTLPPSREEMTKNQVSLTCLVKGFYPSDIAVEWESNGQPENNYKTTPPVLDSDGSFFLYSKLTVDKSRWQQGNVFSCSVMHEALHNHYTQKSLSLSPGAGGGGSGGGGSGGGGSQLQLQESGPGLVKPSETLSLTCTVSGASISSSNHYWGWGWIRQPPGKGLEWIGSIYYSGNTYYNPSLKSRVTISVDTSKNQFSLKLSSVTAADTAVYYCARHRGSYFFDHWGQGTLVTVSSASTKGPSVFPLAPSSKSTSGGTAALGCLVKDYFPEPVTVSWNSGALTSGVHTFPAVLQSSGLYSLSSVVTVPSSSLGTQTYICNVNHKPSNTKVDKRVEPKSC
chain 2: SYVLTQPLSVSVALGQTARITCGGNNIGDKNVHWYQQKPGQAPVLVISRDSNRPSGIPERFSGSNSGNTATLTISRAQAGDESDYYCQVWDSSTVVFGGGTKVTVLGQPKAAPSVTLFPPSSEELQANKATLVCLISDFYPGAVTVAWKADSSPVKAGVETTTPSKQSNNKYAASSYLSLTPEQWKSHKSYSCQVTHEGSTVEKTVAPTECS
- OX40L neutralization/OX40-HEK Reporter IC50 (AVI-GST-His6-hOX40L [5]): 52.8 nM
- Primary T cell activation assay IC50 [6]: 2.9 nM
- Kd [7]: 56 nM

B10: 85F10 (FcFab) (antibody)
chain 1: EPKSSDKTHTCPPCPAPPVAGPSVFLFPPKPKDTLMISRTPEVTCVVVDVSHEDPEVKFNWYVDGVEVHNAKTKPREEQYNSTYRVVSVLTVLHQDWLNGKEYKCAVSNKALPSSIEKTISKAKGQPREPQVYTLPPSREEMTKNQVSLTCLVKGFYPSDIAVEWESNGQPENNYKTTPPVLDSDGSFFLYSKLTVDKSRWQQGNVFSCSVMHEALHNHYTQKSLSLSPGAGGGGSGGGGSGGGGSEVQLLESGAGLLKPSETLSLTCAVYGGSFSDYYWSWIRQPPGKGLEWIGEINHSGSTNYNPSLKSRVTISVDTSKNQFSLKLSSVTAADTAVYYCARKRGANFFDDWGQGTLVTVSSASTKGPSVFPLAPSSKSTSGGTAALGCLVKDYFPEPVTVSWNSGALTSGVHTFPAVLQSSGLYSLSSVVTVPSSSLGTQTYICNVNHKPSNTKVDKRVEPKSC
chain 2: B6 chain 2 with V3E, G28E, D29N, S48K, F61L, S83A, V103L
- OX40L neutralization/OX40-HEK Reporter IC50 (AVI-GST-His6-hOX40L [5]): > 161 nM
- Primary T cell activation assay IC50 [6]: 6.3 nM
- Kd [7]: 50.1 nM

B11: 68F03 (IgG) (antibody)
heavy: not shown
light: SFELTQPLSVSVALGQTARITCGGINIENKNVHYYQQKPGQAPVLVIYRDTNRPSGIPERFSGSNSGNTATLTISRAQAGDEADYYCQVWDSNTVIFGGGTKVTVLGQPKAAPSVTLFPPSSEELQANKATLVCLISDFYPGAVTVAWKADSSPVKAGVETTTPSKQSNNKYAASSYLSLTPEQWKSHKSYSCQVTHEGSTVEKTVAPTECS
- Kd [2]: 25.8 nM
- OX40L neutralization/OX40-HEK Reporter IC50 (AVI-GST-His6-hOX40L [3]): 5.7 nM
- Primary T cell activation assay IC50 [4]: 18.8 nM

The next lines start with the values.

- binding result [1]: binds
- Kd [2]: 39.5 nM
- binding result (mouse OX40L): no binding
- OX40L neutralization/OX40-HEK Reporter IC50 (AVI-GST-His6-hOX40L [3]): 17.7 nM
- Primary T cell activation assay IC50 [4]: 8.8 nM
B2: 84E11 (IgG) (antibody)
heavy: not shown
light: SSELTQDPAVSVALGQTVRITCQGDSLRNYFANWYQQKPGQAPVLVIYGKNNRPSGIPDRFSGSSSGNTASLTITGAQAEDEADYYCNSRDSSGYHVVFGGGTKLTVLGQPKAAPSVTLFPPSSEELQANKATLVCLISDFYPGAVTVAWKADSSPVKAGVETTTPSKQSNNKYAASSYLSLTPEQWKSHKSYSCQVTHEGSTVEKTVAPTECS

- binding result [1]: binds
- Kd [2]: 75.6 nM
- binding result (mouse OX40L): no binding
B4: 85F12 (IgG) (antibody)
heavy: not shown
light: B3 chain 2

- binding result [1]: binds
- Kd [2]: 17.7 nM
- binding result (mouse OX40L): no binding
- OX40L neutralization/OX40-HEK Reporter IC50 (AVI-GST-His6-hOX40L [3]): 3.6 nM
- Primary T cell activation assay IC50 [4]: 12.9 nM
B5: 98C01 (IgG) (antibody)
heavy: not shown
light: B11 light with F2Y, L8P, I25N, Y34W, T51S, T73S, S75N, I96V, V103L

- binding result [1]: binds
- Kd [2]: 53.9 nM
- binding result (mouse OX40L): no binding
- OX40L neutralization/OX40-HEK Reporter IC50 (AVI-GST-His6-hOX40L [3]): 72.7 nM
- Primary T cell activation assay IC50 [4]: 12.4 nM
B7: 30F02 (IgG) (antibody)
heavy: not shown
light: B6 chain 2

- binding result [1]: binds
- Kd [2]: 32.8 nM
- binding result (mouse OX40L): no binding
- OX40L neutralization/OX40-HEK Reporter IC50 (AVI-GST-His6-hOX40L [3]): 5.4 nM
- Primary T cell activation assay IC50 [4]: 8.8 nM
B8: 98E10 (IgG) (antibody)
heavy: not shown
light: B11 light with F2Y, I25N, Y34W, K38M, T51S, S75N, I96V

- binding result [1]: binds
- Kd [2]: 28.2 nM
- binding result (mouse OX40L): no binding
- OX40L neutralization/OX40-HEK Reporter IC50 (AVI-GST-His6-hOX40L [3]): 54.6 nM
B9: 85F10 (IgG) (antibody)
heavy: not shown
light: B6 chain 2 with V3E, G28E, D29N, S48K, F61L, S83A, V103L
